How the values were obtained:
[1] = biological target: human full-length RAF1 (residues 1-648) with C-terminal His6 (human) (UniProt P04049); test: mass photometry; purified RAF1-HSP90-CDC37 complex
[2] = biological target: insect HSP90 from Trichoplusia ni (Trichoplusia ni (endogenous in Tni-FNL cells)); test: mass photometry; purified RAF1-HSP90-CDC37 complex

“insect HSP90 from Trichoplusia ni (natural protein)” showed a stoichiometry N [1] of 2 and a stoichiometry N [2] of 2.

Reference: article PMC10908828
